Reference: patent US20150071927A1 (UNIVERSITY OF HONG KONG, published 2015)

Tests used:
[1] = molecular target: T1, membrane-associated IGF-IR on SKOV-3 cells (human, UniProt P08069 31-936); experiment: flow cytometry on SKOV-3 cells
Protocol: (§1) MCF-7 or SKOV-3 cells were detached using enzyme-free cell-disassociation buffer (Invitrogen), washed twice with PBS, and incubated at 4° C. for 2 h with antibodies in fluorescence-activated cell sorting (FACS) buffer (1% FBS in PBS). Cell surface bound antibodies were detected using PE conjugated to anti-human Fc by incubation at 4° C. for 1 h followed by washing twice with FACS buffer and fixation with 2% paraformaldehyde in FACS buffer. The stained cells were analyzed with a BD flow cytometer and FlowJo software.

[2] = molecular target: T2, recombinant IGF-IR ectodomain (His-tagged) (human, UniProt P08069 31-935); experiment: indirect ELISA, IGF-IR ectodomain coated, biotinylated HER2 ectodomain detected with streptavidin-HRP
T2 construct: also called recombinant IGF-IR (coated); recombinant IGF-IR ectodomains
Protocol: Recombinant ectodomains of IGF-IR or HER2 ([…] in both cases) were coated on 96-well high-binding ELISA plates at 4° C. overnight. The plates were washed and blocked with 3% BSA in PBS at 37° C. for 2 h. Two-fold serially diluted mAb Herceptin or m590 were added to the wells and the bound mAbs were detected by HRP conjugated anti-human Fc as secondary antibody and TMB substrate. Optical density at 450 nm (OD450 nm) was measured after color development at RT for 30 min. In the case of Bi-Ab, recombinant IGF-IR ectodomains were coated on the plates. Following addition of 2-fold serially diluted Bi-Ab and incubation at RT for 2 h, plates were washed and biotinylated HER2 ectodomain (2 μg/ml) was added to each well. Bound HER2 ectodomains were detected by HRP conjugated streptavidin and TMB substrate.
Following addition of the anti-HER2/anti-IGF-IR antibodies to recombinant IGF-IR-coated plates biotinylated recombinant HER2 ectodomains were added. Bound HER2 ectodomains were detected by HRP conjugated streptavidin and TMB substrate.

[3] = molecular target: T1, membrane-associated IGF-IR on SKOV-3 …; experiment: flow cytometry on SKOV-3 cells, MFI against antibody concentration
Protocol: as §1

T1 sequence (P08069 31-936 limits assumed): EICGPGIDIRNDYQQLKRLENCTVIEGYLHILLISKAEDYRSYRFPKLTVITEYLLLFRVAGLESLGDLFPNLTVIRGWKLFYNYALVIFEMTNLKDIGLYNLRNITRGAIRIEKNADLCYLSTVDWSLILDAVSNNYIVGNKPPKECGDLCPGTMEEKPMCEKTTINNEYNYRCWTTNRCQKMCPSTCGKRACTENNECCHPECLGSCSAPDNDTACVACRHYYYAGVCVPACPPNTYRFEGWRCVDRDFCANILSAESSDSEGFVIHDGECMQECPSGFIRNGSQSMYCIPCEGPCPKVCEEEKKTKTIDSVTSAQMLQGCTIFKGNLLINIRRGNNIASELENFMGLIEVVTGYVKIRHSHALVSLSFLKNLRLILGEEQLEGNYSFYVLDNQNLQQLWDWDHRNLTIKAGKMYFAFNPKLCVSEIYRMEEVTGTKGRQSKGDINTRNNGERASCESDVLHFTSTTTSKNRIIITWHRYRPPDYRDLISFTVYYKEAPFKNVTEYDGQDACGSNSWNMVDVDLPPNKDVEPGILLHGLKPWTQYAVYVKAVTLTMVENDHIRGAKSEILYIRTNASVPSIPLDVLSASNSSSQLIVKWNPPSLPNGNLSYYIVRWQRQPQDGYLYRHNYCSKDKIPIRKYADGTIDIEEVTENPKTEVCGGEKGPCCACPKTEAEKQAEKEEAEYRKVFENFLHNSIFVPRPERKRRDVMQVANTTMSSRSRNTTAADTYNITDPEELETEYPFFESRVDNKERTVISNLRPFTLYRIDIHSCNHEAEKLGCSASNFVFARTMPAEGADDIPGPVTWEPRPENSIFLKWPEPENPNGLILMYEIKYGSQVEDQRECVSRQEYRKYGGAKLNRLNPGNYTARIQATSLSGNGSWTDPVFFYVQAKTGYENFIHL
T2 sequence (P08069 31-935): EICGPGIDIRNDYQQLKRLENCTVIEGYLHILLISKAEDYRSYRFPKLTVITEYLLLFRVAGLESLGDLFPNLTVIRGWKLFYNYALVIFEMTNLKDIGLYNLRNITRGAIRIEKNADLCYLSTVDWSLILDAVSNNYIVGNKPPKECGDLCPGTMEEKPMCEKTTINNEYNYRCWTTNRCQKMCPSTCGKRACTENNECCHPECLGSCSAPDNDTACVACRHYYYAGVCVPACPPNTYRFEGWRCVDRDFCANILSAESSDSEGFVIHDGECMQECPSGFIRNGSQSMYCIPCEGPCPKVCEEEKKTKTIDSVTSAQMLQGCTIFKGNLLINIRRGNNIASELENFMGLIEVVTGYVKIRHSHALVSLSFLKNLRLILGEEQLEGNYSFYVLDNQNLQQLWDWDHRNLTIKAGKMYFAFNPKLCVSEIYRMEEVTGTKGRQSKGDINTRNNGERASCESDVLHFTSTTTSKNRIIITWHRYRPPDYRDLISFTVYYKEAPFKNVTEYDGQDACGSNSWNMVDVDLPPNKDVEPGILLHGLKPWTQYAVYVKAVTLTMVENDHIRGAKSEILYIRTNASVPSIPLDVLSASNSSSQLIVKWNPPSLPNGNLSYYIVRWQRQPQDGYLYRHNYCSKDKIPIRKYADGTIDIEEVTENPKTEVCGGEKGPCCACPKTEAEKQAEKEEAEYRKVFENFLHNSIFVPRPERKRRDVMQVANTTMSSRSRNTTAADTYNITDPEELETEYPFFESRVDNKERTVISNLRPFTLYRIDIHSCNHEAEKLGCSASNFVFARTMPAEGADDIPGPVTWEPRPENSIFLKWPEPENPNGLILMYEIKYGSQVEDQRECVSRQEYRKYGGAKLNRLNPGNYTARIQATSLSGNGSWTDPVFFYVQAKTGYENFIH

binding result [1]	binding result [2]	binding result [3]	Binder
binds	binds		anti-HER2/anti-IGF-IR bi-specific antibody (Bi-Ab) (bispecific antibody, human IgG1, kappa, also called anti-IGF-IR/anti-HER2 hybrid IgG; copies: 1 + 1 + 1 + 1) heavy 1: not shown light 1: not shown heavy 2: not shown light 2: QIVLTQSPAIMSASPGEKVTITCSASSSVSYIHWFQQKPGTSPKVWIYGTSNLASGVPARFTGSGSGTSYSLTISRMEAEDAATYYCQQRSSYPFTFGSGTKLEIKRTVAAPSVFIFPPSDEQLKSGTASVVCLLNNFYPREAKVQWKVDNALQSGNSQESVTEQDSKDSTYSLSSTLTLSKADYEKHKVYACEVTHQGLSLPVTKSLNRREC
		binds	m590 anti-IGF-IR mouse/human chimeric antibody (antibody, human IgG1, kappa, V domains shown, also called human/mouse chimeric mAb m590) VH: EVQLQQSGPELEQPGSSVKISCKASGYSFTAYYMHWVKQSHGKSLEWIGRINPDNGGNSYNQKFKGKAILTVDKSSNTAYMELRSLTSEDSAVYYCAKSTSYDYDGYWYFDVWGAGTTVTVSS VL: QIVLTQSPAIMSASPGEKVTITCSASSSVSYIHWFQQKPGTSPKVWIYGTSNLASGVPARFTGSGSGTSYSLTISRMEAEDAATYYCQQRSSYPFTFGSGTKLEIKR
